Results: the supplement of paper PMC9428881
± gives the standard error.

Assay: background-corrected fluorescence of 3'-dye-labeled ssDNA relative to brightest sequence (3'-GCGCG) (fraction); higher = brighter dye fluorescence (less quenching)
Outline: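 Light-directed phosphoramidite synthesis on glass slides produced single-stranded DNA carrying a 3' Cy3 or Cy5 dye next to each of 1024 permuted pentamers. After a 2 h acetonitrile wash at r.t., arrays were scanned at 532 or 635 nm both before and after overnight deprotection in ethylenediamine/ethanol. Every value is the mean of 10 features per array over at least 3 syntheses. Fluorescence had unlabeled-oligo background subtracted and was scaled to the brightest sequence.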

Sequence	background-corrected fluorescence (dye: Cy3 (3' terminal))	background-corrected fluorescence (dye: Cy5 (3' terminal))
TTTTTTGCTCATGCGCATCATTTTTTTTTTTTTTTAGATG [GTAGA]	0.552 ± 0.027	0.439 ± 0.018
TTTTTTGCTCATGCGCATGATTTTTTTTTTTTTTTAGATC [CTAGA]	0.464 ± 0.013	0.359 ± 0.023
TTTTTTGCTCATGCGCATGCTTTTTTTTTTTTTTTAGATA [ATAGA]	0.582 ± 0.025	0.434 ± 0.019
TTTTTTGCTCATGCTCAGCATTTTTTTTTTTTTTTAGAGT [TGAGA]	0.598 ± 0.017	0.503 ± 0.029
TTTTTTGCTCATGCTCATCATTTTTTTTTTTTTTTAGAGG [GGAGA]	0.645 ± 0.037	0.525 ± 0.055
TTTTTTGCTCATGCTCATGATTTTTTTTTTTTTTTAGAGC [CGAGA]	0.565 ± 0.022	0.435 ± 0.046
TTTTTTGCTCATGCTCATGCTTTTTTTTTTTTTTTAGAGA	0.633 ± 0.031	0.519 ± 0.029
TTTTTTGCTCATGCTGAGCATTTTTTTTTTTTTTTAGACT [TCAGA]	0.519 ± 0.025	0.389 ± 0.039
TTTTTTGCTCATGCTGATCATTTTTTTTTTTTTTTAGACG [GCAGA]	0.563 ± 0.031	0.443 ± 0.033
TTTTTTGCTCATGCTGATGATTTTTTTTTTTTTTTAGACC [CCAGA]	0.439 ± 0.034	0.331 ± 0.02
TTTTTTGCTCATGCTGATGCTTTTTTTTTTTTTTTAGACA [ACAGA]	0.522 ± 0.06	0.383 ± 0.029
TTTTTTGCTCATGCTGCGCATTTTTTTTTTTTTTTAGAAT [TAAGA]	0.59 ± 0.032	0.449 ± 0.024
TTTTTTGCTCATGCTGCTCATTTTTTTTTTTTTTTAGAAG [GAAGA]	0.5917 ± 0.0049	0.456 ± 0.025
TTTTTTGCTCATGCTGCTGATTTTTTTTTTTTTTTAGAAC [CAAGA]	0.485 ± 0.022	0.358 ± 0.022
TTTTTTGCTCATGCTGCTGCTTTTTTTTTTTTTTTAGAAA [AAAGA]	0.64 ± 0.019	0.484 ± 0.055
TTTTTTGCTGAGCAGCAGCATTTTTTTTTTTTTTTACTTT [TTTCA]	0.519 ± 0.022	0.37 ± 0.022
TTTTTTGCTGAGCAGCATCATTTTTTTTTTTTTTTACTTG [GTTCA]	0.503 ± 0.019	0.4 ± 0.024

Sequence	background-corrected fluorescence (dye: Cy3 (3' terminal))	background-corrected fluorescence (dye: Cy5 (3' terminal))
TTTTTTGCTGAGCAGCATGATTTTTTTTTTTTTTTACTTC [CTTCA]	0.405 ± 0.022	0.312 ± 0.027
TTTTTTGCTGAGCAGCATGCTTTTTTTTTTTTTTTACTTA [ATTCA]	0.493 ± 0.06	0.379 ± 0.027
TTTTTTGCTGAGCATCAGCATTTTTTTTTTTTTTTACTGT [TGTCA]	0.63 ± 0.027	0.45 ± 0.06
TTTTTTGCTGAGCATCATCATTTTTTTTTTTTTTTACTGG [GGTCA]	0.623 ± 0.022	0.481 ± 0.023
TTTTTTGCTGAGCATCATGATTTTTTTTTTTTTTTACTGC [CGTCA]	0.491 ± 0.033	0.365 ± 0.028
TTTTTTGCTGAGCATCATGCTTTTTTTTTTTTTTTACTGA [AGTCA]	0.654 ± 0.04	0.475 ± 0.024
TTTTTTGCTGAGCATGAGCATTTTTTTTTTTTTTTACTCT [TCTCA]	0.421 ± 0.0073	0.331 ± 0.022
TTTTTTGCTGAGCATGATCATTTTTTTTTTTTTTTACTCG [GCTCA]	0.571 ± 0.028	0.418 ± 0.03
TTTTTTGCTGAGCATGATGATTTTTTTTTTTTTTTACTCC [CCTCA]	0.378 ± 0.023	0.3 ± 0.044
TTTTTTGCTGAGCATGATGCTTTTTTTTTTTTTTTACTCA	0.482 ± 0.028	0.346 ± 0.028
TTTTTTGCTGAGCATGCGCATTTTTTTTTTTTTTTACTAT [TATCA]	0.531 ± 0.012	0.392 ± 0.021
TTTTTTGCTGAGCATGCTCATTTTTTTTTTTTTTTACTAG [GATCA]	0.554 ± 0.029	0.433 ± 0.025
TTTTTTGCTGAGCATGCTGATTTTTTTTTTTTTTTACTAC [CATCA]	0.477 ± 0.017	0.328 ± 0.035
TTTTTTGCTGAGCATGCTGCTTTTTTTTTTTTTTTACTAA [AATCA]	0.522 ± 0.0087	0.413 ± 0.021
TTTTTTGCTGATCAGCAGCATTTTTTTTTTTTTTTACGTT [TTGCA]	0.552 ± 0.018	0.433 ± 0.029
TTTTTTGCTGATCAGCATCATTTTTTTTTTTTTTTACGTG [GTGCA]	0.589 ± 0.022	0.472 ± 0.028
TTTTTTGCTGATCAGCATGATTTTTTTTTTTTTTTACGTC [CTGCA]	0.448 ± 0.016	0.373 ± 0.025
